Values joined by “and” are separate entries in the source; they are usually repeats but may differ in a detail not shown here. Equal entries are not always repeated. Where two headings read alike, the source gives them in different places. Ends that are not written are not given here.
Molecular target: T1, APC/C^Cdc20 (Saccharomyces cerevisiae, UniProt P16522+P53886)
T1 construct: constructed within full-length Cdc20 by site-directed mutagenesis for analysis in vitro in the APC/C^Cdc20 assay; The APC/C was purified for enzyme assays from 1 mL of TAP-tagged Cdc16 yeast extract (SCSY51); made in house; host or cells: Cdc20: in vitro transcription/translation in rabbit reticulocyte lysate, used unpurified; APC/C: S. cerevisiae strain SCSY51 (Cdc16-TAP) extract, captured on IgG magnetic beads
Assay: biochemical
Type: biochemical
Settings: for inhibition of APC/C^Cdc20 activity (in words): 220 μM peptide, time course 0-60 minutes, vs buffer only, n = 3; for ubiquitinated Pds1 species at 60 minutes (in words): inhibitor at about 4-times the IC50, S2 Fig C
Protocol: Full-length, radio-labeled protein purifications were preformed as previously described. ^35S-Pds1 was prepared in a 500 μL IVT/T (In Vitro Transcription/Translation) reaction (Promega, USA), which contained 400 μL rabbit reticulocyte lysate, 20 μL of L-^35S-methionine (PerkinElmer, USA), 10 μg of plasmid DNA, and the remaining volume as nuclease-free ddH2O as recommended by the manufacturer. The reaction mixture was incubated for 2 hours at room temperature and gently mixed every 30 minutes. The reaction was added to pre-equilibrated IgG Sepharose beads (GE Healthcare, USA) in Bio-spin disposable chromatography columns (Bio-Rad, USA) for binding for 2 hours at room temperature. To ensure efficient binding, the beads were re-suspended several times every 30 minutes. After binding, the beads were washed with 5 mL wash buffer, containing 200 mM 4-(2-hydroxyethyl)-1-piperazineethanesulfonic acid (HEPES) at pH 8.0, 150 mM NaCl, 10% (v/v) glycerol, and 1 mM dithiothreitol (DTT). The ^35S-Pds1 was cleaved from the beads using TEV (Tobacco Etch Virus) protease in 1x TEV buffer (Invitrogen, USA) for 2 hours at room temperature, and the mixture was re-suspended several times every 30 minutes to promote efficient cleavage. The elution was collected and concentrated by employing an Amicon Ultra filter column (Millipore, Ireland). The concentrated ^35S-Pds1 was collected in a new tube, and stored at -20 °C.
The production of Cdc20 or Cdh1 was prepared by IVT/T reactions, where 16 μL of rabbit reticulocyte lysate, 20 μM L-methionine, 0.4 μg of plasmid DNA, and a volume of nuclease-free ddH2O for a total volume of 20 μL. This freshly synthesized Cdc20 or Cdh1 protein was used directly in all APC/C assays after a 1-hour synthesis reaction at room temperature. The APC/C was purified for enzyme assays from 1 mL of TAP-tagged Cdc16 yeast extract (SCSY51) where extract was mixed with 50 μL 50:50 slurry magnetic beads (Invitrogen, Norway) for 2 hours at 4 °C. After incubation, the beads were washed with 3 mL APC/C wash buffer (200 mM of HEPES, 150 mM of NaCl and 10% (v/v) of glycerol). APC/C bound to IgG magnetic beads was used directly in the enzyme assays.
APC/C assays were performed by adding the reaction contents in following order: 4.3 μL of QAH buffer, 20 μL of rabbit reticulocyte lysate containing Cdc20 or Cdh1 with or without an additional volume of recombinant checkpoint protein(s) or inhibitor peptides, 2.4 μL ubiquitin aldehyde (Boston Biochem, USA), APC/C, 16 μL pre-charged E1/E2/ATP/ubiquitin mix, and 13.3 μL of ^35S-Pds1 with QAH buffer (20 mM HEPES at pH 8.0, 100 mM NaCl, and 1 mM MgCl2). The E1/E2/ATP/ubiquitin mix were pre-charged by mixing 1 μL of E1 (Boston Biochem, USA), 1 μL of E2 (Boston Biochem, USA), 14.4 μL of ATP, 14.4 μL of […] (Boston Biochem, USA), and 17.2 μL of QAH buffer and incubated for 15 minutes at room temperature. Approximately 15 μL of samples were taken out at each time point, and the reaction was stopped by the addition of 2x protein sample buffer (125 mM Tris-HCl pH 6.8, 4% SDS, 20% glycerol, and 0.002% bromophenol blue, with 10% (final v/v) 2-mercaptoethanol added in fresh directly before use).
For inhibitor titration and time-course experiments, recombinant Bub3, Mad2, Mad3, and the Mad3-Bub3 complex were expressed and purified as previously described. […] For inhibition of APC/C the co-factor Cdc20 or Cdh1 was made fresh by IVT/T, and pure recombinant checkpoint proteins or inhibitor peptides were added to the IVT/T mixture and incubated for an additional hour at room temperature. In titrations, a dilution series of the checkpoint protein(s) were made before incubation with the Cdc20 co-factor. SDS-PAGE was performed using stand protocols (BioRad, USA).

[1] = MCC subunits, 4-parameter Hill fit, ± sd
[2] = MCC subunits, titration, 4-parameter Hill fit, ± sd from three independent titrations, 35S-Pds1 substrate, read-out: IC50

Molecule | inhibition of APC/C^Cdc20 activity (in words) (35S-Pds1 substrate) | Hill coefficient [1] | IC50 [2] [nM] | other results
DS17: DS17 (Cdc20 197–212) peptide derived from the N-terminal portion of the DQ36 peptide (DMNKRILQYMPEPPKC; UniProt P26309 197-212, looked up, fragment) | no significant inhibition was observed |  |  | 
EV25: C-box containing peptide EV25 (Cdc20 134–158) (EVDEQFTVAADRYIPILQGASQNKV; UniProt P26309 134-158, looked up, fragment) | A significant level of APC/C^Cdc20 inhibition was observed only in the presence of the C-box2 peptide |  |  | 
PL29: PL29 (Cdc20 167–196) that does not contain the KILR-motif (LPPPNASPISHLRAQTKIVFKQNVAEACGL; UniProt P26309 167-196, looked up, fragment) | displayed the ability to inhibit APC/C^Cdc20 activity |  |  | 
DMNKRILQYMPEPPKCSSLRQKSYIMKKRTHYSYQQ [DQ36] |  |  |  | IC50: ~150000 nM; IC50 weaker than that of PQ65 (times) (ratio of IC50 relative to PQ65): about 3 times
MKVLDDWFSRKFSKAVHGNNHGTISLSTLSYIRVHKLVK [Tyc1] |  |  |  | IC50: ~50000 nM
C-box1: C-box containing peptide C-box1 (130–167) (TTSREVDEQFTVAADRYIPILQGASQNKVDPETLHEAL; UniProt P26309 130-167, looked up, fragment) | A significant level of APC/C^Cdc20 inhibition was observed only in the presence of the C-box2 peptide |  |  | 
AV16: C-box containing peptide AV16 (Cdc20 143–158) (ADRYIPILQGASQNKV; UniProt P26309 143-158, looked up, fragment) | A significant level of APC/C^Cdc20 inhibition was observed only in the presence of the C-box2 peptide |  |  | 
Mad3: pure recombinant MCC component Mad3 (protein, UniProt P47074 1-515, looked up) Spindle assembly checkpoint …: MKAYAKKRISYMPSSPSQNVINFEEIETQKENILPLKEGRSAAALSKAIHQPLVEINQVKSSFEQRLIDELPALSDPITLYLEYIKWLNNAYPQGGNSKQSGMLTLLERCLSHLKDLERYRNDVRFLKIWFWYIELFTRNSFMESRDIFMYMLRNGIGSELASFYEEFTNLLIQKEKFQYAVKILQLGIKNKARPNKVLEDRLNHLLRELGENNIQLGNEISMDSLESTVLGKTRSEFVNRLELANQNGTSSDVNLTKNNVFVDGEESDVELFETPNRGVYRDGWENFDLKAERNKENNLRISLLEANTNLGELKQHEMLSQKKRPYDEKLPIFRDSIGRSDPVYQMINTKDQKPEKIDCNFKLIYCEDEESKGGRLEFSLEEVLAISRNVYKRVRTNRKHPREANLGQEESANQKEAEAQSKRPKISRKALVSKSLTPSNQGRMFSGEEYINCPMTPKGRSTETSDIISAVKPRQLTPILEMRESNSFSQSKNSEIISDDDKSSSSFISYPPQR |  | 5.0 ± 0.9 and 5.0 | 240 ± 10 | 
Mad2: pure recombinant MCC component Mad2 (protein) MSQSISLKGSTRTVTEFFEYSINSILYQRGVYPAEDFVTVKKYDLTLLKTHDDELKDYIRKILLQVHRWLLGGKCNQLVLCIVDKDEGEVVERWSFNVQHISGNSNGQDDVVDLNTTQSQIRALIRQITSSVTFLPELTKEGGYTFTVLAYTDADAKVPLEWADSNSKEIPDGEVVQFKTFSTNDHKVGAQVSYKY | yields a high level of inhibition | 2.4 ± 0.3 and 2.4 | 2300 ± 500 | ubiquitinated Pds1 species at 60 minutes (in words): the small amount of Pds1 that is ubiquitinated appears to be fully poly-ubiquitinated
Bub3: pure recombinant MCC component Bub3 (protein, UniProt P26449 1-341, looked up) Spindle assembly checkpoint …: MQIVQIEQAPKDYISDIKIIPSKSLLLITSWDGSLTVYKFDIQAKNVDLLQSLRYKHPLLCCNFIDNTDLQIYVGTVQGEILKVDLIGSPSFQALTNNEANLGICRICKYGDDKLIAASWDGLIEVIDPRNYGDGVIAVKNLNSNNTKVKNKIFTMDTNSSRLIVGMNNSQVQWFRLPLCEDDNGTIEESGLKYQIRDVALLPKEQEGYACSSIDGRVAVEFFDDQGDDYNSSKRFAFRCHRLNLKDTNLAYPVNSIEFSPRHKFLYTAGSDGIISCWNLQTRKKIKNFAKFNEDSVVKIACSDNILCLATSDDTFKTNAAIDQTIELNASSIYIIFDYEN |  | 2.2 ± 0.4 and 2.2 | 8700 ± 2400 | 
Mad3-Bub3 complex: recombinant Mad3-Bub3 complex (protein, UniProt P47074 1-515; P26449 1-341, looked up) Spindle assembly checkpoint … 1: MKAYAKKRISYMPSSPSQNVINFEEIETQKENILPLKEGRSAAALSKAIHQPLVEINQVKSSFEQRLIDELPALSDPITLYLEYIKWLNNAYPQGGNSKQSGMLTLLERCLSHLKDLERYRNDVRFLKIWFWYIELFTRNSFMESRDIFMYMLRNGIGSELASFYEEFTNLLIQKEKFQYAVKILQLGIKNKARPNKVLEDRLNHLLRELGENNIQLGNEISMDSLESTVLGKTRSEFVNRLELANQNGTSSDVNLTKNNVFVDGEESDVELFETPNRGVYRDGWENFDLKAERNKENNLRISLLEANTNLGELKQHEMLSQKKRPYDEKLPIFRDSIGRSDPVYQMINTKDQKPEKIDCNFKLIYCEDEESKGGRLEFSLEEVLAISRNVYKRVRTNRKHPREANLGQEESANQKEAEAQSKRPKISRKALVSKSLTPSNQGRMFSGEEYINCPMTPKGRSTETSDIISAVKPRQLTPILEMRESNSFSQSKNSEIISDDDKSSSSFISYPPQR Spindle assembly checkpoint … 2: MQIVQIEQAPKDYISDIKIIPSKSLLLITSWDGSLTVYKFDIQAKNVDLLQSLRYKHPLLCCNFIDNTDLQIYVGTVQGEILKVDLIGSPSFQALTNNEANLGICRICKYGDDKLIAASWDGLIEVIDPRNYGDGVIAVKNLNSNNTKVKNKIFTMDTNSSRLIVGMNNSQVQWFRLPLCEDDNGTIEESGLKYQIRDVALLPKEQEGYACSSIDGRVAVEFFDDQGDDYNSSKRFAFRCHRLNLKDTNLAYPVNSIEFSPRHKFLYTAGSDGIISCWNLQTRKKIKNFAKFNEDSVVKIACSDNILCLATSDDTFKTNAAIDQTIELNASSIYIIFDYEN |  | 7.3 ± 2.6 | 89 ± 4 | Hill coefficient (MCC subunits, 4-parameter Hill fit, ± sd, listed as Mad3-Bub3): 7.3; Hill coefficient (Mad3-Bub3 complex in the presence of 0.5 μM Mad2, ± sd): 8.2 ±1.9; IC50 (Mad3-Bub3 complex in the presence of 0.5 μM Mad2, ± sd, three independent titrations, read-out: IC50): 70 ± 3 nM; ubiquitinated Pds1 species at 60 minutes (in words): the Pds1 accumulated in these lower molecular weight species

From publication PMC5993284, “Peptide inhibitors of the anaphase promoting-complex that cause sensitivity to microtubule poison” (PLoS ONE, 2018)
